Experimental data published in patent publication US20220315554A1, “COMPOUNDS COMPRISING A […] LIGAND AND USE THEREOF” (priority 2019, published 2022).
Bridge positions count the residues as written; N and C are the ends. * marks the point of attachment. tMeBn(DOTA-AET) = Cys-Cys bridge (thioethers) carrying DOTA-AET; tMeBn(DOTA-PP) = Cys-Cys bridge (thioethers) carrying DOTA-PP; Hexanoyl = CCCCCC(=O)*

T1: D1 (h) (human (printed (h))), P21728
T1 chain: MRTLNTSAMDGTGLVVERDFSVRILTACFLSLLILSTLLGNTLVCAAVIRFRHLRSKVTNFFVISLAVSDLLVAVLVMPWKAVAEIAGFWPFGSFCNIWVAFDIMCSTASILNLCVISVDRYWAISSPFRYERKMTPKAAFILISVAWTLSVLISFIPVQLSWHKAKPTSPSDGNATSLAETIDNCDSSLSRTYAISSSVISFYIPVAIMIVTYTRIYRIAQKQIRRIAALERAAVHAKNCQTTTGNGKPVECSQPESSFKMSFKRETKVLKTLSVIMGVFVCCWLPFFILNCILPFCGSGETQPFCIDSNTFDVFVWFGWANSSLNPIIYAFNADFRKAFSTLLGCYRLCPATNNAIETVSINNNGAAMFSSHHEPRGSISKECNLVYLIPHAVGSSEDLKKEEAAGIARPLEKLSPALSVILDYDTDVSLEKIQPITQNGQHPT

T2: alpha 2A (h) (human (printed (h))), P08913
T2 chain: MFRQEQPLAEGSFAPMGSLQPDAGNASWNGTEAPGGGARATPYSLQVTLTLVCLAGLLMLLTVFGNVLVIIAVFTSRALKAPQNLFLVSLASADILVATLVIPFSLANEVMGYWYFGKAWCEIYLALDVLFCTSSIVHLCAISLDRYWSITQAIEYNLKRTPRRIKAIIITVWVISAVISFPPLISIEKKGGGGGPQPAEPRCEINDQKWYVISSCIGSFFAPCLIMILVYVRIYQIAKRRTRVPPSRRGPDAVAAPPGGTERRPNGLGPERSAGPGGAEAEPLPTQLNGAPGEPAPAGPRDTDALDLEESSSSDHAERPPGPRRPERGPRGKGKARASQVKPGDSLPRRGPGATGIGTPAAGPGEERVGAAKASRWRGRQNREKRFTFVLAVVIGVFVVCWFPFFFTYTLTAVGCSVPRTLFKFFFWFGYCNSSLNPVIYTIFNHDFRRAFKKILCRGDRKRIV

T3: Potassium Channel hERG (human) (human), Q12809
T3 chain: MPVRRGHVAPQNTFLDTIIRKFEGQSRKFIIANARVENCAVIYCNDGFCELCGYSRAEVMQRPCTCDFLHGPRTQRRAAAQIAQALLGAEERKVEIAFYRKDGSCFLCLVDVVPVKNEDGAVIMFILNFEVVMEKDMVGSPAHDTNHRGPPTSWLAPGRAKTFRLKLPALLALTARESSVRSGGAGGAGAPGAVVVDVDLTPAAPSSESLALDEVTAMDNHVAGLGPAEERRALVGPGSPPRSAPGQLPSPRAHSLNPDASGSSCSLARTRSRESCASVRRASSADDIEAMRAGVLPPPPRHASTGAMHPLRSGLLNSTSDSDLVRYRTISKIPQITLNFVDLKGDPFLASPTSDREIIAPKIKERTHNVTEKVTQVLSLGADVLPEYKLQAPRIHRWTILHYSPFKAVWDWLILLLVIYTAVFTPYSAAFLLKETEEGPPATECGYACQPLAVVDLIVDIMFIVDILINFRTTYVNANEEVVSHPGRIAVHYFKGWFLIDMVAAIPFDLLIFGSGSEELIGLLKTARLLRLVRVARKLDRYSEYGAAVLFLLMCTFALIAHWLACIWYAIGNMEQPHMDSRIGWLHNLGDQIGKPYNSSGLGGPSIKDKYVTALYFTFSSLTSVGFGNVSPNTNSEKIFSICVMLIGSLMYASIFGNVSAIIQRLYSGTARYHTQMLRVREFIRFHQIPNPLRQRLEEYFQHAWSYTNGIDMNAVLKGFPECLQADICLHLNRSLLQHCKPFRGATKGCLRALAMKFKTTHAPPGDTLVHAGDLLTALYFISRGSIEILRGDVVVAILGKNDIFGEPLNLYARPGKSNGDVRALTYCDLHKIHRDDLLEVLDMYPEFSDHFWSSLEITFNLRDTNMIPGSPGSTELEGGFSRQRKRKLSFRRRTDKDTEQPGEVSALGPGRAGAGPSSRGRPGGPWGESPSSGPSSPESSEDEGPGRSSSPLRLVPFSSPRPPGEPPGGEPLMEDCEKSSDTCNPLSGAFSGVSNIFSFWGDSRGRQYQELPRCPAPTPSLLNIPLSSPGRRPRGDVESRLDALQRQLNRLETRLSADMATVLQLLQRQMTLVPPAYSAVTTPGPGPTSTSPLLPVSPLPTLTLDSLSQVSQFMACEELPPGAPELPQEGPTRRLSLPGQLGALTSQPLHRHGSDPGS


Columns and labels:
Conditions in all cases: remark: other sources report otherwise
[1] = target: T1, D1 (h) (human (printed (h))), P21728; assay: radioligand displacement, 10 uM compound
[2] = target: 5-HT1B (h) (human (printed (h))), P28222; assay: radioligand displacement, 10 uM compound
[3] = target: M3 (h) (human (printed (h))), P20309; assay: radioligand displacement, 10 uM compound
[4] = target: V1a (h) (human (printed (h))), P37288; assay: radioligand displacement, 10 uM compound
[5] = target: T2, alpha 2A (h) (human (printed (h))), …; assay: radioligand displacement, 10 uM compound
[6] = target: 5-HT2B (h) (human (printed (h))), P41595; assay: radioligand displacement, 10 uM compound
[7] = target: T3, Potassium Channel hERG (human) (human), …; assay: [3H] Dofetilide displacement, 10 uM compound

Sequence of 5-HT1B (h) (human (printed (h))), P28222 (P28222 whole entry): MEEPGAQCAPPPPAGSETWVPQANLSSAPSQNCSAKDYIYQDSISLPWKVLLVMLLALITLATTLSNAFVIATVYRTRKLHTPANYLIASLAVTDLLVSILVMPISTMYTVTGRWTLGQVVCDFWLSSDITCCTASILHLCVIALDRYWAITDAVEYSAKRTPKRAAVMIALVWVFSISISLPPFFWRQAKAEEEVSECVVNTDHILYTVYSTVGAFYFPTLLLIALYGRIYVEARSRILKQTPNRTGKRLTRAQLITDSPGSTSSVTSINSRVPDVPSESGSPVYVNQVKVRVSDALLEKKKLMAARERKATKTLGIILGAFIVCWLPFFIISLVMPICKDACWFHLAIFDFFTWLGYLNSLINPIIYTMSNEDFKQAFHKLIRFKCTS

Row | % Inhibition of Specific Binding [1] | % Inhibition of Specific Binding [2] | % Inhibition of Specific Binding [3] | % Inhibition of Specific Binding [4] | % Inhibition of Specific Binding [5] | % Inhibition of Specific Binding [6] | Binder | % Inhibition of Specific Binding [7]
1 | 0% | -11% | 10% | 16% | -9% | 2% | Hexanoyl-CPPTQFCD-NH2 (linker 1-7 via tMeBn(DOTA-PP)) [Hex-[Cys(tMeBn(DOTA-PP))-Pro-Pro-Thr-Gln-Phe-Cys]-Asp-NH2 (3BP-3407)] | 2%
2 | 7% | 8% | 1% | 1% | 2% | 3% | Hexanoyl-CPPTQFC-OH (linker 1-7 via tMeBn(DOTA-AET)) [Hex-[Cys(tMeBn(DOTA-AET))-Pro-Pro-Thr-Gln-Phe-Cys]-OH (3BP-3554)] | 6%
